B1: CCL5 (protein, UniProt P13501 24-91, looked up)
C-C motif chemokine 5: SPYSSDTTPCCFAYIARPLPRAHIKEYFYTSGKCSNPAVVFVTRKNRQVCANPEKKWVREYINSLEMS
B2: SMOC2 (protein, UniProt Q9H3U7 22-446, looked up)
SPARC-related modular …: QKFSALTFLRVDQDKDKDCSLDCAGSPQKPLCASDGRTFLSRCEFQRAKCKDPQLEIAYRGNCKDVSRCVAERKYTQEQARKEFQQVFIPECNDDGTYSQVQCHSYTGYCWCVTPNGRPISGTAVAHKTPRCPGSVNEKLPQREGTGKTDDAAAPALETQPQGDEEDIASRYPTLWTEQVKSRQNKTNKNSVSSCDQEHQSALEEAKQPKNDNVVIPECAHGGLYKPVQCHPSTGYCWCVLVDTGRPIPGTSTRYEQPKCDNTARAHPAKARDLYKGRQLQGCPGAKKHEFLTSVLDALSTDMVHAASDPSSSSGRLSEPDPSHTLEERVVHWYFKLLDKNSSGDIGKKEIKPFKRFLRKKSKPKKCVKKFVEYCDVNNDKSISVQELMGCLGVAKEDGKADTKKRHTPRGHAESTSNRQPRKQG
B3: CRKL (protein, UniProt P46109 1-303, looked up)
Crk-like protein: MSSARFDSSDRSAWYMGPVSRQEAQTRLQGQRHGMFLVRDSSTCPGDYVLSVSENSRVSHYIINSLPNRRFKIGDQEFDHLPALLEFYKIHYLDTTTLIEPAPRYPSPPMGSVSAPNLPTAEDNLEYVRTLYDFPGNDAEDLPFKKGEILVIIEKPEEQWWSARNKDGRVGMIPVPYVEKLVRSSPHGKHGNRNSNSYGIPEPAHAYAQPQTTTPLPAVSGSPGAAITPLPSTQNGPVFAKAIQKRVPCAYDKTALALEVGDIVKVTRMNINGQWEGEVNGRKGLFPFTHVKIFDPQNPDENE
B4: PRTN3 (protein, UniProt P24158 28-248, looked up)
Myeloblastin: IVGGHEAQPHSRPYMASLQMRGNPGSHFCGGTLIHPSFVLTAAHCLRDIPQRLVNVVLGAHNVRTQEPTQQHFSVAQVFLNNYDAENKLNDVLLIQLSSPANLSASVATVQLPQQDQPVPHGTQCLAMGWGRVGAHDPPAQVLQELNVTVVTFFCRPHNICTFVPRRKAGICFGDSGGPLICDGIIQGIDSFVIWGCATRLFPDFFTRVALYVDWIRSTLR
B5: IRAK1 (protein, UniProt P51617 1-712, looked up)
Interleukin-1 …: MAGGPGPGEPAAPGAQHFLYEVPPWVMCRFYKVMDALEPADWCQFAALIVRDQTELRLCERSGQRTASVLWPWINRNARVADLVHILTHLQLLRARDIITAWHPPAPLPSPGTTAPRPSSIPAPAEAEAWSPRKLPSSASTFLSPAFPGSQTHSGPELGLVPSPASLWPPPPSPAPSSTKPGPESSVSLLQGARPFPFCWPLCEISRGTHNFSEELKIGEGGFGCVYRAVMRNTVYAVKRLKENADLEWTAVKQSFLTEVEQLSRFRHPNIVDFAGYCAQNGFYCLVYGFLPNGSLEDRLHCQTQACPPLSWPQRLDILLGTARAIQFLHQDSPSLIHGDIKSSNVLLDERLTPKLGDFGLARFSRFAGSSPSQSSMVARTQTVRGTLAYLPEEYIKTGRLAVDTDTFSFGVVVLETLAGQRAVKTHGARTKYLKDLVEEEAEEAGVALRSTQSTLQAGLAADAWAAPIAMQIYKKHLDPRPGPCPPELGLGLGQLACCCLHRRAKRRPPMTQVYERLEKLQAVVAGVPGHSEAASCIPPSPQENSYVSSTGRAHSGAAPWQPLAAPSGASAQAAEQLQRGPNQPVESDESLGGLSAALRSWHLTPSCPLDPAPLREAGCPQGDTAGESSWGSGPGSRPTAVEGLALGSSASSSSEPPQIIINPARQKMVQKLALYEDGALDSLQLLSSSSLPGLGLEQDRQGPEESDEFQS
B6: IL-5R-alpha (protein, UniProt Q01344 21-420, looked up)
Interleukin-5 receptor …: DLLPDEKISLLPPVNFTIKVTGLAQVLLQWKPNPDQEQRNVNLEYQVKINAPKEDDYETRITESKCVTILHKGFSASVRTILQNDHSLLASSWASAELHAPPGSPGTSIVNLTCTTNTTEDNYSRLRSYQVSLHCTWLVGTDAPEDTQYFLYYRYGSWTEECQEYSKDTLGRNIACWFPRTFILSKGRDWLAVLVNGSSKHSAIRPFDQLFALHAIDQINPPLNVTAEIEGTRLSIQWEKPVSAFPIHCFDYEVKIHNTRNGYLQIEKLMTNAFISIIDDLSKYDVQVRAAVSSMCREAGLWSEWSQPIYVGNDEHKPLREWFVIVIMATICFILLILSLICKICHLWIKLFPPIPAPKSNIKDLFVTTNYEKAGSSETEIEVICYIEKPGVETLEDSVF
B7: STX16 (protein, UniProt O14662 1-325, looked up)
Syntaxin-16: MATRRLTDAFLLLRNNSIQNRQLLAEQVSSHITSSPLHSRSIAAELDELADDRMALVSGISLDPEAAIGVTKRPPPKWVDGVDEIQYDVGRIKQKMKELASLHDKHLNRPTLDDSSEEEHAIEITTQEITQLFHRCQRAVQALPSRARACSEQEGRLLGNVVASLAQALQELSTSFRHAQSGYLKRMKNREERSQHFFDTSVPLMDDGDDNTLYHRGFTEDQLVLVEQNTLMVEEREREIRQIVQSISDLNEIFRDLGAMIVEQGTVLDRIDYNVEQSCIKTEDGLKQLHKAEQYQKKNRKMLVILILFVIIIVLIVVLVGVKSR
B8: ESM-1 (protein, UniProt Q9NQ30 20-184, looked up)
Endothelial cell-specific …: WSNNYAVDCPQHCDSSECKSSPRCKRTVLDDCGCCRVCAAGRGETCYRTVSGMDGMKCGPGLRCQPSNGEDPFGEEFGICKDCPYGTFGMDCRETCNCQSGICDRGTGKCLKFPFFQYSVTKSSNRFVSLTEHDMASGDGNIVREEVVKENAAGSPVMRKWLNPR
B9: PILRA (protein, UniProt Q9UKJ1 20-303, looked up)
Paired immunoglobulin-like …: QPSGSTGSGPSYLYGVTQPKHLSASMGGSVEIPFSFYYPWELATAPDVRISWRRGHFHRQSFYSTRPPSIHKDYVNRLFLNWTEGQKSGFLRISNLQKQDQSVYFCRVELDTRSSGRQQWQSIEGTKLSITQAVTTTTQRPSSMTTTWRLSSTTTTTGLRVTQGKRRSDSWHISLETAVGVAVAVTVLGIMILGLICLLRWRRRKGQQRTKATTPAREPFQNTEEPYENIRNEGQNTDPKLNPKDDGIVYASLALSSSTSPRAPPSHRPLKSPQNETLYSVLKA
B10: PPP1R2 (protein, UniProt P41236 2-205, looked up)
Protein phosphatase inhibitor …: AASTASHRPIKGILKNKTSTTSSMVASAEQPRGNVDEELSKKSQKWDEMNILATYHPADKDYGLMKIDEPSTPYHSMMGDDEDACSDTEATEAMAPDILARKLAAAEGLEPKYRIQEQESSGEEDSDLSPEEREKKRQFEMKRKLHYNEGLNIKLARQLISKDLHDDDEDEEMLETADGESMNTEESNQGSTPSDQQQNKLRSS
B11: ANG-1 (protein, UniProt Q15389 16-498, looked up)
Angiopoietin-1: HIGCSNQRRSPENSGRRYNRIQHGQCAYTFILPEHDGNCRESTTDQYNTNALQRDAPHVEPDFSSQKLQHLEHVMENYTQWLQKLENYIVENMKSEMAQIQQNAVQNHTATMLEIGTSLLSQTAEQTRKLTDVETQVLNQTSRLEIQLLENSLSTYKLEKQLLQQTNEILKIHEKNSLLEHKILEMEGKHKEELDTLKEEKENLQGLVTRQTYIIQELEKQLNRATTNNSVLQKQQLELMDTVHNLVNLCTKEGVLLKGGKREEEKPFRDCADVYQAGFNKSGIYTIYINNMPEPKKVFCNMDVNGGGWTVIQHREDGSLDFQRGWKEYKMGFGNPSGEYWLGNEFIFAITSQRQYMLRIELMDWEGNRAYSQYDRFHIGNEKQNYRLYLKGHTGTAGKQSSLILHGADFSTKDADNDNCMCKCALMLTGGWWFDACGPSNLNGMFYTAGQNHGKLNGIKWHYFKGPSYSLRSTTMMIRPLDF
B12: DFFA (protein, UniProt O00273 1-331, looked up)
DNA fragmentation factor …: MEVTGDAGVPESGEIRTLKPCLLRRNYSREQHGVAASCLEDLRSKACDILAIDKSLTPVTLVLAEDGTIVDDDDYFLCLPSNTKFVALASNEKWAYNNSDGGTAWISQESFDVDETDSGAGLKWKNVARQLKEDLSSIILLSEEDLQMLVDAPCSDLAQELRQSCATVQRLQHTLQQVLDQREEVRQSKQLLQLYLQALEKEGSLLSKQEESKAAFGEEVDAVDTGISRETSSDVALASHILTALREKQAPELSLSSQDLELVTKEDPKALAVALNWDIKKTETVQEACERELALRLQQTQSLHSLRSISASKASPPGDLQNPKRARQDPT
B13: STX6 (protein, UniProt O43752 2-255, looked up)
Syntaxin-6: SMEDPFFVVKGEVQKAVNTAQGLFQRWTELLQDPSTATREEIDWTTNELRNNLRSIEWDLEDLDETISIVEANPRKFNLDATELSIRKAFITSTRQVVRDMKDQMSTSSVQALAERKNRQALLGDSGSQNWSTGTTDKYGRLDRELQRANSHFIEEQQAQQQLIVEQQDEQLELVSGSIGVLKNMSQRIGGELEEQAVMLEDFSHELESTQSRLDNVMKKLAKVSHMTSDRRQWCAIAILFAVLLVVLILFLVL
B14: MAP2K6 (protein, UniProt P52564 1-334, looked up)
Dual specificity …: MSQSKGKKRNPGLKIPKEAFEQPQTSSTPPRDLDSKACISIGNQNFEVKADDLEPIMELGRGAYGVVEKMRHVPSGQIMAVKRIRATVNSQEQKRLLMDLDISMRTVDCPFTVTFYGALFREGDVWICMELMDTSLDKFYKQVIDKGQTIPEDILGKIAVSIVKALEHLHSKLSVIHRDVKPSNVLINALGQVKMCDFGISGYLVDSVAKTIDAGCKPYMAPERINPELNQKGYSVKSDIWSLGITMIELAILRFPYDSWGTPFQQLKQVVEEPSPQLPADKFSAEFVDFTSQCLKKNSKERPTYPELMQHPFFTLHESKGTDVASFVKLILGD

The source of these data is US12099068B2, “Biomarkers for graft-versus-host disease” (Incyte Corporation, priority 2018, dated 2024).

The experiment deals with plasma proteins. Kind of experiment: Plasma proteins modulated between baseline and day 28 in responders (CR, VGPR, PR; n = 19), Example 6 (Table 13). The class given is in vivo, human. To be noted: plasma protein (OLINK NPX); responders (CR, VGPR, PR; n = 19); itacitinib 200 mg or 300 mg QD with corticosteroids; day 28 vs baseline. How it is done: Due to the limited sample size, steroid-naive (N=10) and steroid-refractory (N=18) patients were combined for further analysis. Broad proteomic analysis of over 1000 proteins was conducted by OLINK Proteomics (Watertown, MA) using a proximity extension assay as described by the manufacturer. Data are presented as normalized protein expression (NPX) in log 2 scale. Statistical differences were evaluated using unpaired and paired t tests, one-way […] (ANOVA), and Pearson Correlation. Significance was conferred when P<0.05.
Longitudinal differences in protein expression were analyzed by evaluating plasma samples from baseline/screening and day 28.
As for B1, the “Fold Change, Decreased Expression from Baseline to Day 28” value (from here on “Fold Change, Decreased Expression”) is −1.6357.

As to B2, the “Fold Change, Increased Expression from Baseline to Day 28” value stood at 1.2842. Regarding B3, the “Fold Change, Decreased Expression” value is recorded as −1.8003. Same read-out and setting: to B4 belongs −1.7658; to B5, −1.2986. Still for that read-out and setting: next, B6: −1.6599; B7: −1.4673.

As for B8, the “Fold Change, Decreased Expression” value was −1.4178. Same read-out and setting: to B9 belongs −1.2582. On the same count and under the same terms, to B10 belongs −1.3339; to B11, −1.7898; to B12, −1.31.

With B13, the “Fold Change, Decreased Expression” value is on record as −1.4715. Still for that read-out and setting: to B14 belongs −1.8184.
